Here are results for 1 substance from patent US20190284258A1, “HAEMADIPSA SYLVESTRIS ANTITHROMBOTIC PEPTIDE SYLVESTIN AND USE THEREOF” (priority 2016, published 2019).

This assay concerns the target FXIIa. Kind of assay: enzyme inhibition kinetics, chromogenic substrate, OD 405 nm.

What is called Ki is the equilibrium dissociation constant of an inhibitor or competing ligand from its target. A high value points to a looser hold on the target.

FXIIa, sequence (P00748 20-372, chain 1 of 2): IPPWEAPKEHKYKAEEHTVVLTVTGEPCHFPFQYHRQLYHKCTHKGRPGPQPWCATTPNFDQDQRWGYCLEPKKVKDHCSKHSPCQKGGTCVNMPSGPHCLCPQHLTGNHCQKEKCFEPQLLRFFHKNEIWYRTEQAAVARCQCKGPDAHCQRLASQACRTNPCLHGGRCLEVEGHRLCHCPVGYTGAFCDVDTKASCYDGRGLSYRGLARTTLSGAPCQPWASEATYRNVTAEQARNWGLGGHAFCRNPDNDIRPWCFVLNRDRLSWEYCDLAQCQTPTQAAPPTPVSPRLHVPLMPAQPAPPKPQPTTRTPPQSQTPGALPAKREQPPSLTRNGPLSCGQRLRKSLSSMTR
FXIIa, sequence (P00748 373-615, chain 2 of 2): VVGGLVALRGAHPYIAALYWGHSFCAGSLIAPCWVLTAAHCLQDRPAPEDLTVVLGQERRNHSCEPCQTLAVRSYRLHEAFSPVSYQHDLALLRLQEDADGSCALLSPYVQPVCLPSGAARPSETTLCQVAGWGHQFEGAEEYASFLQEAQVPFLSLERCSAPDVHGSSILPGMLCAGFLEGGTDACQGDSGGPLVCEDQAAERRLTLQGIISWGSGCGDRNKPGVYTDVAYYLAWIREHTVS

On to “Haemadipsa sylvestris antithrombotic peptide Sylvestin”, for which the Ki turned out to be 2900 nM.
